Target: the molecule itself
Experiment: reducing SDS-PAGE and Western blot; serial dilutions of recombinant CXCL17 (24–119), 1.25–10 μM, resolved by reducing SDS-PAGE and probed with anti-CXCL17; bands of 14 kDa and 28 kDa read as monomer and dimer; the 28-kDa species seen at 5 μM and above

B1: recombinant human CXCL17 (24–119) (natural protein, UniProt Q6UXB2 24-119, looked up)
chain: LNPGVARGHRDRGQASRRWLQEGGQECECKDWFLRAPRRKFMTVSGLPKKQCPCDHFKGNVKKTRHQRHHRKPNKHSRACQQFLKQCQLRSFALPL
notes: human CXCL17, residues 24-119 (Leu24–Leu119), the commercially available form without the predicted signal peptide; UniProt Q6UXB2; The text calls the protein on the blots commercially available; also called Leu24–Leu119 form of CXCL17; source: bought: R&D Systems; produced in E. coli
Q: With B1 as the protein, how does the “ratio of monomer:dimer” value read?
A: ~3 monomer:dimer
